Results as given in article PMC3955222.

Substrate: O=C=O
Experiment: protein film electrochemistry, KM for CO2 reduction at -560 mV
Format: biochemical, Carboxydothermus hydrogenoformans
Conditions: [Ni-4Fe-4S] C-cluster active site C-cluster

B1: CODH IICh (Carboxydothermus hydrogenoformans Z-2901) (protein)
chain: AKQNLKSTDRAVQQMLDKAKREGIQTVWDRYEAMKPQCGFGETGLCCRHCLQGPCRINPFGDEPKVGICGATAEVIVARGLDRSIAAGAAGHSGHAKHLAHTLKKAVQGKAASYMIKDRTKLHSIAKRLGIPTEGQKDEDIALEVAKAALADFHEKDTPVLWVTTVLPPSRVKVLSAHGLIPAGIDHEIAEIMHRTSMGCDADAQNLLLGGLRCSLADLAGCYMGTDLADILFGTPAPVVTESNLGVLKADAVNVAVHGHNPVLSDIIVSVSKEMENEARAAGATGINVVGICCTGNEVLMRHGIPACTHSVSQEMAMITGALDAMILDYQCIQPSVATIAECTGTTVITTMEMSKITGATHVNFAEEAAVENAKQILRLAIDTFKRRKGKPVEIPNIKTKVVAGFSTEAIINALSKLNANDPLKPLIDNVVNGNIRGVCLFAGCNNVKVPQDQNFTTIARKLLKQNVLVVATGCGAGALMRHGFMDPANVDELCGDGLKAVLTAIGEANGLGGPLPPVLHMGSCVDNSRAVALVAALANRLGVDLDRLPVVASAAEAMHEKAVAIGTWAVTIGLPTHIGVLPPITGSLPVTQILTSSVKDITGGYFIVELDPETAADKLLAAINERRAGLGLPW
Km: 8.0 ± 1.6 mM
